Laboratory results taken from patent US20060270591A1, “Androgen receptor coregulators” (priority 2002, published 2006).

T1: PR (Homo sapiens, UniProt P06401)
T1 construct: expressed in transfected cells; host or cells: DU145, PC-3
T1 sequence (P06401 1-933): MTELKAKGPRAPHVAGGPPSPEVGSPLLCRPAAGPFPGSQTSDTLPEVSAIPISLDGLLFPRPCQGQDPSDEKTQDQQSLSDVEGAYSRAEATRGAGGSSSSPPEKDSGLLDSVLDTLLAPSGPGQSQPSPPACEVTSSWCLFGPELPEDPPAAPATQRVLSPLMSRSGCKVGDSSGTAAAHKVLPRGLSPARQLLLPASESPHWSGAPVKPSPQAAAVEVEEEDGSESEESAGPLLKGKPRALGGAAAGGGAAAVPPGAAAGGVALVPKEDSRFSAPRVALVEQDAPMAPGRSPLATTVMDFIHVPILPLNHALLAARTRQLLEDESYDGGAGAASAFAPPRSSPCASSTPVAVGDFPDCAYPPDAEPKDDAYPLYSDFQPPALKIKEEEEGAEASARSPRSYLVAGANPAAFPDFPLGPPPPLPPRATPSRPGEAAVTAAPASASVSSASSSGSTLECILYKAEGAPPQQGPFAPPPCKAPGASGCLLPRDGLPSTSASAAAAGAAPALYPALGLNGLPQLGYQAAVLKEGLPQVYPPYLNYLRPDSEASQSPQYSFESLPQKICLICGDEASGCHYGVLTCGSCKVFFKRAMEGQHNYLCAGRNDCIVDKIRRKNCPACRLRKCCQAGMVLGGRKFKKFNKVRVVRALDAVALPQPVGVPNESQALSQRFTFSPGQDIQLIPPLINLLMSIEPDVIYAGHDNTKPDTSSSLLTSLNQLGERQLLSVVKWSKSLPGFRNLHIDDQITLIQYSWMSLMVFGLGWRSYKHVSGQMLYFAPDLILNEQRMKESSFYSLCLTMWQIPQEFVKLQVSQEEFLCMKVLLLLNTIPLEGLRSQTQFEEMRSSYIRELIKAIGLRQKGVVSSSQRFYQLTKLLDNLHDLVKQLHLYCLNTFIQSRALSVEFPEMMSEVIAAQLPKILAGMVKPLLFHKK


Columns and labels:
PR = target: T1, PR; experiment: PR transcription activity, MMTV-CAT reporter (Example 1); format: cell-based; details: DU145 cells
Experimental: 366. Human prostate cancer DU145 or PC3 cells, or human lung carcinoma cells NCI H1299 were grown in Dulbecco's minimal essential medium (DMEM) containing penicillin (25 U/ml), streptomycin (25˜g/ml), and 5% fetal calf serum (FCS). One hour before transfection, the medium was changed to DMEM with 5% charcoal-stripped FCS. Phenol red-free and serum-free media were used on the experiments employing E2 or TGF-β, respectively. A β-galactosidase expression plasmid, pCMV-β-gal, was used as an internal control for transfection efficiency.
367. Cells were transfected using the calcium phosphate technique (Yeh, et al. Molec. Endocrinol. 8:77-88, 1994). The medium was changed 24 hr posttransfection and the cells treated with either steroid hormones or hydroxyflutamide, and cultured for an additional 24 hr. Cells were harvested and assayed for CAT activity after the cell lysates were normalized by using β-galactosidaseas an internal control. Chloramphenicol acetyltransferase (CA) activity was visualized by PhosphorImager (Molecular Dynamics) and quantitated by ImageQuant software (Molecular Dynamics).

AR = details: prostate cancer cells; androgens or HF; cited from earlier work
PSA = experiment: Western blot of endogenous PSA in stably transfected LNCaP cells; format: cell-based, human; details: stable LNCaP cells; +doxy; 1 nM DHT; vector alone without doxy = 100%
Source text: 14. […] (A) The effects of C′-ARA54 and mt-ARA54 on cell proliferation. […] Total cell number was counted by hemocytometer. Values represent the mean±SD of at least three determinations. (B) The effects of C′-ARA54 and mt-ARA54 on AR transcription activity. LNCaP cells stably transfected with pBIG2i (vector alone), pBIG2i-C′-ARA54, pBIG2i-mt-ARA54, or pBIG2i-fl-ARA54 were transiently transfected with MMTV-Luc. […] Values represent the mean±SD of at least three determinations. (C) The effects of C′-ARA54 and mt-ARA54 on PSA expression. […] The 33-kDa of protein was detected as indicated and quantitated by Collage Image Analysis software (Fotodyne). The normalized expression level in the first lane (vector alone without doxy treatment) was set as 100%. Values represent the mean±SD of three separate experiments.
395. […]

enhancement of the transcription activity of PR (PR) | Molecule | enhancement of transactivation of wild-type AR and LNCaP mutant AR (AR) | endogenous PSA expression (PSA) [%]
3-5 fold | ARA54: 54 kDa protein that interacts with AR in an androgen-dependent manner; AR coactivator (protein) MSSEDREAQEDELLALASIYDGDEFRKAESVQGGETRIYLDLPQNFKIFVSGNSNECLQNSGFEYTICFLPPLVLNFELPPDYPSSSPPSFTLSGKWLSPTQLSALCKHLDNLWEEHRGSVVLFAWMQFLKEETLAYLNIVSPFELKIGSQKKVQRRTAQASPNTELDFGGAAGSDVDQEEIVDERAVQDVESLSNLIQEILDFDQAQQIKCFNSKLFLCSICFCEKLGSECMYFLECRHVYCKACLKDYFEIQIRDGQVQCLNCPEPKCPSVATPGQVKELVEAELFARYDRLLLQSSLDLMADVVYCPRPCCQLPVMQEPGCTMGICSSCNFAFCTLCRLTYHGVSPCKVTAEKLMDLRNEYLQADEANKRLLDQRYGKRVIQKALEEMESKEWLEKNSKSCPCCGTPIEKLDGCNKMTCTGCMQYFCWICMGSLSRANPYKHFNDPGSPCFNRLFYAVDVDDDIWEDEVED | 2-6 fold | 
 | C′-ARA54: C-terminal region (amino acids 361-474) of ARA54 (protein, Homo sapien, C-terminal region (amino acids 361-474) of ARA54) RNEYLQADEANKRLLDQRYGKRVIQKALEEMESKEWLEKNSKSCPCCGTPIEKLDGCNKMTCTGCMQYFCWICMGSLSRANPYKHFNDPGSPCFNRLFYAVDVDDDIWEDEVED |  | 87
